Source: publication PMC10681739, “High-throughput data and modeling reveal insights into the mechanisms of cooperative DNA-binding by transcription factor proteins”

The binders below were run against ETS1:RUNX1 (Homo sapiens, UniProt P14921;Q01196 full;full) (assay: gcPBM; 1 nM ETS1 + 25 nM RUNX1, anti-ETS1 signal, normalised). Details: tags: N-terminal GST (pDEST15), kept (PMC6008103); copies: 1;1; label: surface-attached array probe.
Chain of ETS1:RUNX1 (P14921 whole entry, chain 1 of 2): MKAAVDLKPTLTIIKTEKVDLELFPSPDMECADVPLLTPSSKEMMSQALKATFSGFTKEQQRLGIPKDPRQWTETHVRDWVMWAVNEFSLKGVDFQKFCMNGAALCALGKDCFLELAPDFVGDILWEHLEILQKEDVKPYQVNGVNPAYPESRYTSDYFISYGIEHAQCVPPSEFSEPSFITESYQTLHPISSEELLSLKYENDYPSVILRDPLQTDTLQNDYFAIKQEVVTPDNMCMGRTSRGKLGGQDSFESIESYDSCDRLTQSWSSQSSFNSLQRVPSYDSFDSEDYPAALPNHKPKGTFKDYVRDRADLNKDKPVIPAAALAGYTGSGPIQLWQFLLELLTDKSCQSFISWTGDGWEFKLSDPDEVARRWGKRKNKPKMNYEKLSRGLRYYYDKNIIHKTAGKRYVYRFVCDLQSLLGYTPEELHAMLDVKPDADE
Chain of ETS1:RUNX1 (Q01196 whole entry, chain 2 of 2): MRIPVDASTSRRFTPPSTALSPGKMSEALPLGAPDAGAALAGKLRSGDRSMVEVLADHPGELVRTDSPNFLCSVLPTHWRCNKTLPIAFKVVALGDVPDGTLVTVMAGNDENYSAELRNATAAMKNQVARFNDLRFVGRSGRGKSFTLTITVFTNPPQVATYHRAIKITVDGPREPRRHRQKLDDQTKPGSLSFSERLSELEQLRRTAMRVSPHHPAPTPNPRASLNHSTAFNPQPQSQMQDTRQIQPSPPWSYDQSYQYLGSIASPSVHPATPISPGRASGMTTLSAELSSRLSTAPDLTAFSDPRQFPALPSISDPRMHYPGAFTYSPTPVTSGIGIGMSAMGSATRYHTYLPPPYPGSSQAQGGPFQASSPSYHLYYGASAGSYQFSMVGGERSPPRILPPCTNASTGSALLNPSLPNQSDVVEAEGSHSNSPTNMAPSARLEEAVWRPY

Binder	binding signal
Table S2 A row 1154 (dsDNA) DNA 1: GGCCTCGGCCACATCCGGGTTCCACCGCAGATTCGG DNA 2: CCGAATCTGCGGTGGAACCCGGATGTGGCCGAGGCC	5630 PBM fluorescence, median of replicate spots
Table S2 A row 860 (dsDNA) DNA 1: CTGAGCCGGATGTTACTGGTTAGTGGTTTTCTTTAT DNA 2: ATAAAGAAAACCACTAACCAGTAACATCCGGCTCAG	5210 PBM fluorescence, median of replicate spots
Table S2 A row 233 (dsDNA) DNA 1: TCCTATATACTTCCGTTTGCCTCGCGGTTTCTTTCT DNA 2: AGAAAGAAACCGCGAGGCAAACGGAAGTATATAGGA	4400 PBM fluorescence, median of replicate spots
Table S2 A row 1272 (dsDNA) DNA 1: TTGAATATGAAAGGAAGTGGTTAGGTGATGTGTTCT DNA 2: AGAACACATCACCTAACCACTTCCTTTCATATTCAA	5150 PBM fluorescence, median of replicate spots
Table S2 A row 1336 (dsDNA) DNA 1: CACCTCGGGGGTTTCCGGTCCGTGGTTAGCTCCTTC DNA 2: GAAGGAGCTAACCACGGACCGGAAACCCCCGAGGTG	6540 PBM fluorescence, median of replicate spots
Table S2 A row 163 (dsDNA) DNA 1: GATTGTTATGTCCGGAAACCGCTTATCAGAGCCCTG DNA 2: CAGGGCTCTGATAAGCGGTTTCCGGACATAACAATC	5000 PBM fluorescence, median of replicate spots
Table S2 A row 414 (dsDNA) DNA 1: CGCCGAACTTCCGGCAGTAAATTCCGTGGTTTCCCT DNA 2: AGGGAAACCACGGAATTTACTGCCGGAAGTTCGGCG	5300 PBM fluorescence, median of replicate spots
Table S2 A row 719 (dsDNA) DNA 1: TTGCCATTCCAGGAAATGAGCTTACCACATTGACTG DNA 2: CAGTCAATGTGGTAAGCTCATTTCCTGGAATGGCAA	6220 PBM fluorescence, median of replicate spots
Table S2 A row 1300 (dsDNA) DNA 1: CAAGTAATCTGCTCAGGAAGTGGTTTGAATAGAGGA DNA 2: TCCTCTATTCAAACCACTTCCTGAGCAGATTACTTG	4710 PBM fluorescence, median of replicate spots
Table S2 A row 274 (dsDNA) DNA 1: ATGCCTTCTTCCAGAGGATGTGGTCGCTACTAGTGG DNA 2: CCACTAGTAGCGACCACATCCTCTGGAAGAAGGCAT	4270 PBM fluorescence, median of replicate spots
Table S2 A row 585 (dsDNA) DNA 1: TGTATGAAAAAAACAGGAAACCACAGAGAACTGAGG DNA 2: CCTCAGTTCTCTGTGGTTTCCTGTTTTTTTCATACA	4240 PBM fluorescence, median of replicate spots
Table S2 A row 733 (dsDNA) DNA 1: CAGTGAACAGTTTCCTGTTCCTGTGGTTTTGACTTT DNA 2: AAAGTCAAAACCACAGGAACAGGAAACTGTTCACTG	5690 PBM fluorescence, median of replicate spots
Table S2 A row 238 (dsDNA) DNA 1: GCGCGGACAGAGAAAGGATGTGGTATAGCAGAAAGT DNA 2: ACTTTCTGCTATACCACATCCTTTCTCTGTCCGCGC	4350 PBM fluorescence, median of replicate spots
Table S2 A row 1073 (dsDNA) DNA 1: ACCTTGCCTAGAGGAAGTGGTTTTTCGAATCTGAGT DNA 2: ACTCAGATTCGAAAAACCACTTCCTCTAGGCAAGGT	4490 PBM fluorescence, median of replicate spots
Table S2 A row 995 (dsDNA) DNA 1: GCGCCCTCCAGGAAACGCCGCGGTTTACTGTCTGCC DNA 2: GGCAGACAGTAAACCGCGGCGTTTCCTGGAGGGCGC	4310 PBM fluorescence, median of replicate spots
Table S2 A row 1268 (dsDNA) DNA 1: GAATGGCGGATGTGGCTGGGGAGAGAAAGCCGCAGA DNA 2: TCTGCGGCTTTCTCTCCCCAGCCACATCCGCCATTC	4780 PBM fluorescence, median of replicate spots
Table S2 A row 552 (dsDNA) DNA 1: AACCATTACAGGATGTGAGATTCAAACCACTAACAG DNA 2: CTGTTAGTGGTTTGAATCTCACATCCTGTAATGGTT	4190 PBM fluorescence, median of replicate spots
Table S2 A row 1241 (dsDNA) DNA 1: AAGAAAAAGGGAGGATGTGGTTTAGCAAAAGCACTG DNA 2: CAGTGCTTTTGCTAAACCACATCCTCCCTTTTTCTT	5810 PBM fluorescence, median of replicate spots
Table S2 A row 1723 (dsDNA) DNA 1: CAACCCGGAAGCACTAACGGAGAAACCGCAACTCGG DNA 2: CCGAGTTGCGGTTTCTCCGTTAGTGCTTCCGGGTTG	5540 PBM fluorescence, median of replicate spots
Table S2 A row 1124 (dsDNA) DNA 1: ATCTTTTGATGAGGATGTGGTTTCCAGGCAGGTGCT DNA 2: AGCACCTGCCTGGAAACCACATCCTCATCAAAAGAT	4440 PBM fluorescence, median of replicate spots
Table S2 A row 485 (dsDNA) DNA 1: TGAAGTACTAGTCAAGGATGTGGTTTTACATAGCAG DNA 2: CTGCTATGTAAAACCACATCCTTGACTAGTACTTCA	4920 PBM fluorescence, median of replicate spots
Table S2 A row 145 (dsDNA) DNA 1: TGGGGAACGCTGCGGATGCTGCGGTAAACCATGCGA DNA 2: TCGCATGGTTTACCGCAGCATCCGCAGCGTTCCCCA	5120 PBM fluorescence, median of replicate spots

Binder	binding signal
Table S2 A row 329 (dsDNA) DNA 1: TCCAGCTCCACAGGATGTGGTGAGTGAAGCAGCAAG DNA 2: CTTGCTGCTTCACTCACCACATCCTGTGGAGCTGGA	6260 PBM fluorescence, median of replicate spots
Table S2 A row 1719 (dsDNA) DNA 1: GCCACACTTCCGGCGGGGCTGCGACCGCAGAGGGGC DNA 2: GCCCCTCTGCGGTCGCAGCCCCGCCGGAAGTGTGGC	5900 PBM fluorescence, median of replicate spots
Table S2 A row 717 (dsDNA) DNA 1: GGACAGGAAGTTCCTGCAGCTTCTACCACAAACCTA DNA 2: TAGGTTTGTGGTAGAAGCTGCAGGAACTTCCTGTCC	4990 PBM fluorescence, median of replicate spots
Table S2 A row 1225 (dsDNA) DNA 1: GCTAGACAGGAAACAGTGAGCTTCTGTGGGCAGGAG DNA 2: CTCCTGCCCACAGAAGCTCACTGTTTCCTGTCTAGC	5960 PBM fluorescence, median of replicate spots
Table S2 A row 1378 (dsDNA) DNA 1: CAAGAGAAAGGAAGTGGAAGCTCTTGTGGTCTGGAA DNA 2: TTCCAGACCACAAGAGCTTCCACTTCCTTTCTCTTG	5370 PBM fluorescence, median of replicate spots
Table S2 A row 777 (dsDNA) DNA 1: CAGGAGCAGTGTAGAGGAAGTGGTTTCCATCACGGA DNA 2: TCCGTGATGGAAACCACTTCCTCTACACTGCTCCTG	4870 PBM fluorescence, median of replicate spots
Table S2 A row 34 (dsDNA) DNA 1: GGAGGTGGGGAGGAAGTTCTGAAACCACACACATTT DNA 2: AAATGTGTGTGGTTTCAGAACTTCCTCCCCACCTCC	4160 PBM fluorescence, median of replicate spots
Table S2 A row 877 (dsDNA) DNA 1: GAGTGGGCGGAAATCCGTGCCTGGCAGACCACAAAG DNA 2: CTTTGTGGTCTGCCAGGCACGGATTTCCGCCCACTC	4940 PBM fluorescence, median of replicate spots
Table S2 A row 1035 (dsDNA) DNA 1: AGTTGGTTCCTTCCGGTGGGTTTGTGGGTTTGGGGT DNA 2: ACCCCAAACCCACAAACCCACCGGAAGGAACCAACT	5250 PBM fluorescence, median of replicate spots
Table S2 A row 1092 (dsDNA) DNA 1: CTCACAGAGCAAGTAGGATGTGGTTTCCAGGGGCTG DNA 2: CAGCCCCTGGAAACCACATCCTACTTGCTCTGTGAG	5400 PBM fluorescence, median of replicate spots
Table S2 A row 426 (dsDNA) DNA 1: GCCGGAAGCCACGCAGGGCCACGTCTGCGGTTCTGA DNA 2: TCAGAACCGCAGACGTGGCCCTGCGTGGCTTCCGGC	4460 PBM fluorescence, median of replicate spots
Table S2 A row 1614 (dsDNA) DNA 1: ACCTCAAGCCCAGGATGTGGTTTGGCCACTATTGAG DNA 2: CTCAATAGTGGCCAAACCACATCCTGGGCTTGAGGT	6100 PBM fluorescence, median of replicate spots
Table S2 A row 1358 (dsDNA) DNA 1: CAGCCTTGCCGGAAGGCAGAGTTTGTGGTCAGACCG DNA 2: CGGTCTGACCACAAACTCTGCCTTCCGGCAAGGCTG	6650 PBM fluorescence, median of replicate spots
Table S2 A row 1530 (dsDNA) DNA 1: CCAGGCGGAAGCGGCCGGGAGTAGCGCTGCGGTTGG DNA 2: CCAACCGCAGCGCTACTCCCGGCCGCTTCCGCCTGG	5640 PBM fluorescence, median of replicate spots
Table S2 A row 1086 (dsDNA) DNA 1: TTTCTGACACTCTCAGGATGTGGGTTTTCACACTGT DNA 2: ACAGTGTGAAAACCCACATCCTGAGAGTGTCAGAAA	6500 PBM fluorescence, median of replicate spots
Table S2 A row 104 (dsDNA) DNA 1: TGGGGACCACTGTCAGGATGTGGTCACTGGAGTCAC DNA 2: GTGACTCCAGTGACCACATCCTGACAGTGGTCCCCA	6580 PBM fluorescence, median of replicate spots
Table S2 A row 1325 (dsDNA) DNA 1: GGACCGGTGTCTGGCGGATGCGGTCGTGAAGATAGG DNA 2: CCTATCTTCACGACCGCATCCGCCAGACACCGGTCC	4590 PBM fluorescence, median of replicate spots
Table S2 A row 601 (dsDNA) DNA 1: CATTCAGTAAAAGGATGTGGTTTAGAACAGATGAAA DNA 2: TTTCATCTGTTCTAAACCACATCCTTTTACTGAATG	6340 PBM fluorescence, median of replicate spots
Table S2 A row 1339 (dsDNA) DNA 1: GTAGGGAAGACGGGATGTGGGTTTTCAGCCGTGGCC DNA 2: GGCCACGGCTGAAAACCCACATCCCGTCTTCCCTAC	4760 PBM fluorescence, median of replicate spots
Table S2 A row 391 (dsDNA) DNA 1: TGCAAAAAAACAGGAAACACCCAGCCGCAAATTATA DNA 2: TATAATTTGCGGCTGGGTGTTTCCTGTTTTTTTGCA	6020 PBM fluorescence, median of replicate spots
Table S2 A row 1069 (dsDNA) DNA 1: AAAGCATTTCCTGCCTTGACTTAACCACAAGACAGG DNA 2: CCTGTCTTGTGGTTAAGTCAAGGCAGGAAATGCTTT	6290 PBM fluorescence, median of replicate spots
Table S2 A row 1363 (dsDNA) DNA 1: ATGAGCTATTTCCTGCCTTGTGGTCAGAGCCAGACT DNA 2: AGTCTGGCTCTGACCACAAGGCAGGAAATAGCTCAT	5600 PBM fluorescence, median of replicate spots
